Laboratory results published in patent US7282576B2, “Coactivators in the diagnosis and treatment of breast cancer” (Georgetown University, priority 2001, dated 2007).

Columns and labels:
[1] = molecular target: T1, human estrogen receptor α (Homo sapiens, UniProt P03372); assay: Transient transfection ERE-luciferase reporter assay in CHO cells; type: cell-based, hamster
T1 construct: expressed in transfected cells; host or cells: CHO cells
T1 sequence (P03372 1-595): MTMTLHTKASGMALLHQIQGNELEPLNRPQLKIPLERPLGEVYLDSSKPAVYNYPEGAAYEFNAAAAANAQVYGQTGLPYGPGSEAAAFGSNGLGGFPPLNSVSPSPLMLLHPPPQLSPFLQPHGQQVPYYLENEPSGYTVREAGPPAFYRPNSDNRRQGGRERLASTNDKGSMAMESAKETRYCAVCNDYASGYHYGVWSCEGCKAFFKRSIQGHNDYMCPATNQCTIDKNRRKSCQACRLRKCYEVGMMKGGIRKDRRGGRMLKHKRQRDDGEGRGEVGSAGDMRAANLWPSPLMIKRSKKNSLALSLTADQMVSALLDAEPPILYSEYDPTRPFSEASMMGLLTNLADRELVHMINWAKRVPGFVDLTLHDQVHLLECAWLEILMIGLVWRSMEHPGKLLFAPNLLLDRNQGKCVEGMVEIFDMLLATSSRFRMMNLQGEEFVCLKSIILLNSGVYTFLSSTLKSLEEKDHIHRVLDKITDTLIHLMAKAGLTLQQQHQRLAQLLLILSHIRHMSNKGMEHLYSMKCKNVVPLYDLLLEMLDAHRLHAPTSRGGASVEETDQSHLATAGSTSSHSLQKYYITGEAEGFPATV
Experimental: To verify that the Δ3-AIB1 mRNA was translated in vivo, transient transfection of CHO cells (FIG. 2; see FIG. 4a) or COS-1 cells (see FIG. 5a) with the Δ3-AIB1 cDNA was performed. COS-1 and CHO cells were plated at densities of 2×10^5 and 5×10^5 cells per well, respectively, in six-well plates, and were cultured for 24 h at 37° C. under 5% CO2 in IMEM or Ham's F-12, respectively, supplemented with 5% FBS that had been treated with dextran-coated charcoal. The medium was then replaced with IMEM containing Lipofectamine Plus (Gibco BRL) and expression and reporter plasmids as indicated. After incubation for 3 h, the medium was replaced with IMEM (COS-1 cells) or Ham's F-12 (CHO cells), each containing 5% dextran-coated charcoal-treated FBS and nuclear receptor ligands. Cells were incubated for 24 h and then disrupted in passive lysis buffer (Promega). Portions (20 μl) of the resulting cell extract were assayed for both firefly and renilla luciferase activities with the Dual-Luciferase reporter assay system (Promega).
The effect of the deletion of the bHLH and PAS A domains was next examined in Δ3-AIB1 on protein function. AIB1 acts as a coactivator for several nuclear receptors, including those for estrogen and progesterone, which are important in breast carcinogenesis. […]

[2] = tested on: human FGF-BP gene promoter; assay: EGF activation of FGF-BP gene promoter luciferase reporter in ME-180 cells; type: cell-based; details: EGF 5 ng/ml, 18 h
Experimental: ME-180 cells were plated at a density of 5×10^5 cells per well and cultured for 24 h in IMEM supplemented with 5% dextran-charcoal-treated FBS. They were then incubated for 3 h in IMEM supplemented with Lipofectamine Plus and expression and reporter plasmids. Cells were washed and then incubated in IMEM for an additional 3 h before incubation for 18 h with EGF (5 ng/ml) in serum-free IMEM and subsequent lysis. Because of high background induction of pRL-CMV expression by EGF, firefly luciferase activity was normalized by protein concentration as described previously (32).
Cells were transfected with 3 μg of either pcDNA3, pcDNA3-AIB1, or pcDNA3-AIB1-Δ3, together with a luciferase reporter plasmid containing the human FGF-BP gene promoter (1 μg) (32) (FIG. 6). After incubation of cells for 18 h in the absence or presence of EGF (5 ng/ml) in serum-free medium, cell extracts were prepared and assayed for luciferase activity. Activity was normalized by protein concentration, and the normalized activity values were then expressed relative to that of cells transfected with pcDNA3 and not exposed to EGF. Data are means±SEM of values from three independent experiments, each performed in triplicate. *P<0.01 versus the corresponding value for control cells.

| Substance | factor of potentiation of the estrogen response at approximately equal amounts of recombinant protein ([1]; 0.3 μg AIB1 vector vs 3 μg Δ3-AIB1 vector) | increase in estrogen-induced luciferase activity ([1]; 3 μg expression vector, 10 nM estradiol-17β, 24 h) | increase of EGF induction of FGF-BP promoter reporter activity ([2]; ME-180 cells, 3 μg vector) | increase in FGF-BP promoter reporter activity ([2]; ME-180 control cells with empty expression vector) |
| --- | --- | --- | --- | --- |
| AIB1: 156-kDa full-length nuclear receptor coactivator amplified in breast cancer 1, expressed from pcDNA3-AIB1 | 1.1 | 1.4 fold | increased slightly |  |
| EGF: epidermal growth factor [reference compound] |  |  |  | 2.5 fold |
